The values below come from patent publication US20060199250A1, “Method for generating a mutant protein which efficiently binds a target molecule” (priority 2005, published 2006).

Assay [1] in a line: Mammalian cell transactivation (luciferase) of full-length hERα constructs in HEC-1 cells toward DHB. The assay is classed as cell-based, human. As to the method:
Mammalian cell transactivation profiles for the wild-type hERα and the two best mutants, 4-S and 5-E, were carried out in estrogen receptor-negative human endometrial cancer (HEC-1) cells after cloning the hERα LBD from the chimeric yeast two-hybrid construct into the full-length estrogen receptor construct.
Mammalian Transfection and Luciferase Assay. Methods used for cell culture, transfection, and performance of luciferase assay are known in the art (Muthyala, et al. (2003) J. Med. Chem. 46:1589-1602).

The nature of assay [2]: Yeast two-hybrid ligand dose response assay (growth, OD600) of hERα LBD constructs toward DHB. The assay is classed as cell-based. The note with it: in yeast; DHB vs E2. Here is the method: Phenotypic screening of library variants was carried out based on a yeast two-hybrid system employing two constructs, the hERα LBD construct fused to the DNA binding domain of the yeast Gal4 transactivator, and the common mammalian transcriptional coactivator steroid receptor coactivator-1 (SRC-1) fused to the yeast Gal4 transcriptional activation domain. The hERα-SRC-1 interaction, which is elemental in the role of hERα as a transcriptional activator, is strengthened by the binding of agonist ligands to hERα. This system couples the strength of ligand-receptor interaction within host yeast cells to their growth on media lacking histidine and can be applied in either a selection or screening mode (Chen, et al. (2004) supra).
The plasmids from promising mutants based on this ligand response assay were isolated and re-transformed into fresh yeast cells, and the ligand response assay was carried out again to eliminate possible false-positives.
Plasmids, Strains, Reagents and Growth Media. […]
Ligand Dose Response Assay. […] These microtiter plates were incubated at 30° C. for 24 hours, after which cultures were mixed by pipetting, and OD600 readings were taken using a SPECTRAMAX® 340PC plate reader (Molecular Devices, Sunnyvale, Calif.).

B1: mutant 5-E: hERα mutant: Ala350Met, Leu346Ile, Met388Gln, Gly521Ser, Tyr526Asp, Phe461Leu, Val560Met (protein, UniProt P03372 1-595, looked up, variant A350M L346I M388Q G521S Y526D F461L V560M)
Estrogen receptor: MTMTLHTKASGMALLHQIQGNELEPLNRPQLKIPLERPLGEVYLDSSKPAVYNYPEGAAYEFNAAAAANAQVYGQTGLPYGPGSEAAAFGSNGLGGFPPLNSVSPSPLMLLHPPPQLSPFLQPHGQQVPYYLENEPSGYTVREAGPPAFYRPNSDNRRQGGRERLASTNDKGSMAMESAKETRYCAVCNDYASGYHYGVWSCEGCKAFFKRSIQGHNDYMCPATNQCTIDKNRRKSCQACRLRKCYEVGMMKGGIRKDRRGGRMLKHKRQRDDGEGRGEVGSAGDMRAANLWPSPLMIKRSKKNSLALSLTADQMVSALLDAEPPILYSEYDPTRPFSEASMMGLITNLMDRELVHMINWAKRVPGFVDLTLHDQVHLLECAWLEILQIGLVWRSMEHPGKLLFAPNLLLDRNQGKCVEGMVEIFDMLLATSSRFRMMNLQGEEFVCLKSIILLNSGVYTLLSSTLKSLEEKDHIHRVLDKITDTLIHLMAKAGLTLQQQHQRLAQLLLILSHIRHMSNKSMEHLDSMKCKNVVPLYDLLLEMLDAHRLHAPTSRGGASMEETDQSHLATAGSTSSHSLQKYYITGEAEGFPATV
Consider B1, for which the Selectivity result in assay [1] (HEC-1 cells, EC50 of E2 divided by EC50 of DHB) is “≧2.6 × 10^4”. The “Fold Improvement” value in assay [1] (HEC-1 cells, selectivity DHB vs E2 relative to wild-type hERα) is reported as “≧1.4 × 10^8”. Moreover, the “selectivity enhancement relative to the fourth round mutant (4-S)” value in assay [1] (in mammalian cells, DHB vs E2) is “no selectivity enhancement”; in assay [2], “no selectivity enhancement”.
